# B1: Grp94: Glucose-regulated protein 94, native, purified from the microsomal fraction of rat hepatocytes (protein, UniProt Q66HD0 22-804, looked up)
# Endoplasmin: DDEVDVDGTVEEDLGKSREGSRTDDEVVQREEEAIQLDGLNASQIRELREKSEKFAFQAEVNRMMKLIINSLYKNKEIFLRELISNASDALDKIRLISLTDENALAGNEELTVKIKCDREKNLLHVTDTGVGMTREELVKNLGTIAKSGTSEFLNKMTEAQEDGQSTSELIGQFGVGFYSAFLVADKVIVTSKHNNDTQHIWESDSNEFSVIADPRGNTLGRGTTITLVLKEEASDYLELDTIKNLVRKYSQFINFPIYVWSSKTETVEEPLEEDETAQEEKEEADDEAAVEEEEEEKKPKTKKVEKTVWDWELMNDIKPIWQRPSKEVEEDEYKAFYKSFSKESDDPMAYIHFTAEGEVTFKSILFVPTSAPRGLFDEYGSKKSDYIKLYVRRVFITDDFHDMMPKYLNFVKGVVDSDDLPLNVSRETLQQHKLLKVIRKKLVRKTLDMIKKIADEKYNDTFWKEFGTNIKLGVIEDHSNRTRLAKLLRFQSSHHSTDITSLDQYVERMKEKQDKIYFMAGSSRKEAESSPFVERLLKKGYEVIYLTEPVDEYCIQALPEFDGKRFQNVAKEGVKFDESEKSKESREATEKEFEPLLNWMKDKALKDKIEKAVVSQRLTESPCALVASQYGWSGNMERIMKAQAYQTGKDISTNYYASQKKTFEINPRHPLIRDMLRRVKEDEDDKTVMDLAVVLFETATLRSGYLLPDTKAYGDRIERMLRLSLNIDPEAQVEEEPEEEPEDTTEDTTDDSEQDEEETDAGAEEEEEEQETEKEPTEKDEL
# Assays:
# [1] = system: HSP90 and HSP70 expression in HUVECs; test: Expression of HSP90, HSP70 and IgG in HUVEC lysates and conditioned media (SDS-PAGE, Western blotting); type: cell-based, human
# Protocol: 2. Effects on the expression of HSP70 and HSP90 in HUVECs: hereafter are described in detail the method and results shown in FIG. 3(A) referred to experiments performed after 20-h incubation of cells in the presence of Grp94 (10 ng/ml), both alone and with IgG, with and without the inhibitor U0126 (10 μM, final concentration). Cells were detached from wells and treated with lysis buffer (50 mM Tris-HCl, pH 8.9, 5 mM EDTA, 380 mM glycine, 2% SDS, 7 mM β-mercaptoethanol). Whole cell lysates were analyzed in SDS-PAGE (10% polyacrylamide gel) followed by Western blotting with anti-HSP90, anti-HSP70 and anti-human IgG Abs. The same quantity of proteins (determined by means of densitometric analysis made on common bands in any lysates) was loaded in each well in SDS-PAGE. Arrows on left mark bands in the lanes that are also shared by nearby lanes on right. […] It is worth noting that band positive for IgG appear at the same masses at which also focuses HSP70. In the presence of the inhibitor, the HSP90 expression is blocked, whereas that of both HSP70 and IgG is still evident in cells after treatment, especially in bands at higher molecular masses. Western blotting for each type of protein is representative of at least three other experiments made on the same samples on different occasions.
# The analysis made on cell lysates was also conducted on conditioned media (collected from the same cell cultures on which lysates were obtained, as reported above). Media were collected from duplicate wells, centrifuged for removing cell debris, extensively dialyzed, lyophilized and submitted to electrophoresis analysis followed by Western blotting with anti-HSP90, anti-HSP70 and anti-human IgG Abs (as above, for cell lysates). […] In particular, it was observed that the secreted species of HSP90, HSP70 and IgG were only those induced by treatments with Grp94, especially in complexes with IgG.
# [2] = system: HUVECs; test: Microscopic evaluation of morphogenic (angiogenic) transformation of HUVECs; type: cell-based, human
# [3] = system: human umbilical vein endothelial cells (HUVECs); test: Cell growth stimulation of HUVECs (cell count in hemocytometer); type: cell-based; conditions: U0126 10 μM alone, no Grp94, control without inhibitor (DMSO 0.1%) 98.01±5.4×10^3
# Protocol: Cells were grown in endothelial basal medium supplemented with fetal bovine serum (FBS) at 10%, and after a starving period of 8-10 h in absence of FBS, fresh serum-free medium was added (2 ml) together with Grp94 (at the final concentration of 1 and 10 ng/ml) both alone and with IgG (at the molar ratio of 1:1). After an incubation period of 20 h, the medium was collected and cells detached from duplicate wells and counted in a hemocytometer. Cell viability was evaluated with the trypan blue dye exclusion method; trypan blue only enters cells with an altered, but not intact membrane permeability.
# Histograms in FIG. 2(B) represent the number of cells grown with Grp94 (10 ng/ml), both alone and in the presence of IgG, with the addition of the inhibitor U0126 (10 μM, final concentration). […] The inhibitor was added to cell cultures 30 min before the addition of Grp94, both alone and with IgG. […] Asterisks on bars mark statistically significant (*, p<0.05) and highly significant (**, p<0.001) differences with respect to control values (empty bars).
# [4] = system: human peripheral blood mononuclear cells (PBMCs); test: Growth stimulation of PBMCs (cell count after 2-week culture); type: cell-based; conditions: 2-week incubation, no FBS, control 10% FBS
# Protocol: 4. Effects of stimulation of PBMC: PBMC were obtained from blood using the method of the Ficoll-Paque gradient. A sample of about 25 ml of buffy-coat (concentrated sample of red blood cells, white blood cells and platelets) was obtained after centrifugation of 250 ml of blood. The buffy-coat, containing about 300-600 million of PBMCs (1 million/ml of blood sample), was put in a 50-ml Falcon test-tube with the addition of a volume of RPMI (Roswell Park Memorial Institute) medium equal to half of the buffy-coat volume. The first step of PBMC separation included the preparation of the Ficoll solution in aliquots kept in the dark at +4° C. Five ml of buffy-coat were dropped on 4 ml of Ficoll solution put in Falcon test-tube (14-ml capacity). After centrifugation at 600×g for 30 min in swinging buket rotor, the white disk of PBMCs stratified between the upper […] (red blood cells instead precipitate to the bottom), and was thus recovered with a Pasteur pipette. The fractions of PBMCs were mixed together in a Falcon test-tube (50-ml capacity) and fresh RPMI medium added up to the volume of 50 ml. After centrifugation at 600×g for 15 min, the supernatant was discarded and the pellet washed twice by adding the medium up to the volume of 50 ml, each washing being followed by centrifugation at 300×g for 10 min. After the last centrifugation, the pellet was re-suspended with RPMI medium up to 50 ml of volume.
# The count of PBMCs was made on a diluted solution of PBMCs, mixing 50 μl of the starting solution in 250 μl (final volume) of Turk dye solution (in acetic acid). The cell count was made in a common cell-counting chamber.
# In experiments aimed at measuring IgG concentrations in the medium, PBMCs are seeded at the concentration of 2×10^6 cells/ml (1 ml/well) in a 24- or 48-well flat-bottomed plate (wells of 2 and 1 ml, respectively) incubated at 37° C., in a humidified 95% air, 5% CO2 atmosphere for 2 weeks. […]
# [5] = system: HUVECs; test: Confocal microscopy of HSP90/HSP70 fluorescence and cytoskeleton changes in HUVECs; type: cell-based, human; conditions: Grp94 10 ng/ml, serum-free medium
# Protocol: Cells were cultured in serum-free medium both without any treatment (control, panels a) and with the addition of both Grp94 alone (10 ng/ml) (panels b) and Grp94 in complexes with IgG (panels c), as specified above. In FIG. 4(A) is shown the fluorescence (evidenced with confocal microscopy) due to anti-HSP90 Abs reacting with HSP90 in both control and treated HUVECs (panels a, b and c on left). Intensity of the fluorescence is increased in cells treated with Grp94, especially when present in complexes with IgG. […] Of interest is the co-location of HSP90 with actin, mostly evident in podosomes, underlined by the pale blue fluorescence due to merging of the green and blue fluorescence of HSP90 and actin, respectively (panels on right). In FIG. 4(B) is shown the fluorescence due to HSP70 following the addition to cell cultures of anti-HSP70 Abs, similarly to what reported for anti-HSP90 Abs. […] Arrow heads in both (A) and (B) mark some of the most significant structural changes in the cell cytoskeleton (inserts in panels on right).
# [6] = system: human IgG; test: Dot-blot analysis of Grp94 binding to human IgG; conditions: human IgG 4 μg/ml, 8 h room temperature
# Protocol: In dot-blot experiments, strips of PVDF membrane were rinsed first in methanol (1 min) and then in de-ionized water (1 min) and let partially dry (3 min). Dots were made with 10 μl of Grp94 (2 μg). Grp94 solution (in bi-distilled water) was used as such (without any treatment) or after boiling for 2 min. Dots with each of the Grp94 solutions (both untreated and boiled) were made in duplicate on membrane strips that were incubated in both absence (control, in TBS only) and presence of human IgG (4 μg/ml) for 8 h at room temperature. Membrane strips were then incubated overnight with a blocking solution of BSA (1%) and Tween (0.2%), followed by washings with TBS (for 1 h) and a further incubation with primary sheep anti-human IgG Abs (2.5 μg/ml). After repeated washings with TBS (for 1 h), membrane strips were then immersed in the solution of secondary Abs (donkey anti-sheep IgG Abs) for 1 h and probed with the detection solution. Control strips with dots of Grp94 incubated with TBS alone were probed with both primary and secondary Abs, and with secondary Abs alone.
# [7] = system: PBMC; test: IgG production from PBMC (anti-human Ig-I125 radioimmunoassay of supernatants); type: cell-based; conditions: Grp94 10 ng/ml (maximum of stimulation), 2-week incubation at 37° C.
# Protocol: In experiments aimed at measuring IgG concentrations in the medium, PBMCs are seeded at the concentration of 2×10^6 cells/ml (1 ml/well) in a 24- or 48-well flat-bottomed plate (wells of 2 and 1 ml, respectively) incubated at 37° C., in a humidified 95% air, 5% CO2 atmosphere for 2 weeks. Controls included triplicate wells containing medium only (or the diluent in which substances were dissolved, where appropriate), puromicine (100 μg/ml, final concentration, useful for detecting background Abs, i.e., Abs already present in circulation non specifically bound to blood cells), and a standard mitogen (pockweed mitogen, PWM) diluted 1:50 (v:v). Treatment included the addition of Grp94 (at final concentrations of 1, 10 and 100 ng/ml), both alone and in complexes with IgG, and IgG alone (at the final concentration necessary to give a 1:1 molar ratio with Grp94), after each solution was incubated at 37° C. for 1 h.
# 5. IgG production from PBMC: on a 96-well (200 μl each) flat-bottomed Optiplate (Packard) were laid down 50 μl of anti-human IgG Abs (5 μg/ml in NaHCO3/Na2CO3 buffer, ph 9.6) that were allowed to dry out overnight. Afterwards, 200 μl of PBS with 3% BSA and 0.02% NaN3 were added to saturate aspecific binding sites in Abs. […] The plate was then dried after additional washings and radioactivity measured after the addition of 30 μl of Microscint 20 in each well. […]
Molecule,HSP90 expression in treated HUVECs in the presence of the inhibitor ([1]; U0126 10 μM added to cells treated with Grp94 10 ng/ml alone or with IgG),morphology of HUVECs with inhibitor on its own ([2]; U0126 10 μM alone),number of control cells in presence of the inhibitor [3],increase in PBMC number with respect to the control value ([4]; Grp94 1 ng/ml) [%],increase in PBMC number with respect to the control value ([4]; Grp94 10 ng/ml) [%],increase in PBMC number with respect to the control value ([4]; Grp94 100 ng/ml) [%],"HSP90, HSP70 and IgG in conditioned media (Western blotting) ([1]; HUVEC media after 20-h treatment, Grp94 10 ng/ml, no positivity in control media, mostly in complexes with IgG)","HSP70 in whole cell lysates (Western blotting) ([1]; HUVECs, Grp94 10 ng/ml, 20-h incubation, constitutive form in any lysates)","HSP90 in whole cell lysates (Western blotting) ([1]; HUVECs, Grp94 10 ng/ml, 20-h incubation, not present in control lysates)",intensity of HSP90 fluorescence (confocal microscopy) ([5]; especially in complexes with IgG),fluorescence of HSP70 (confocal microscopy) ([5]; versus control),"morphogenic transformation of HUVECs ([2]; Grp94 10 ng/ml, alone or with IgG 1:1, not changed significantly by U0126, versus cobblestone morphology of control)",binding to IgG (dot-blot) ([6]; Grp94 after boiling for 2 min),binding to IgG (dot-blot) ([6]; untreated Grp94 2 μg dots),IgG production (radioactivity) [7] [cpm]
"N#CC(=C(/N)Sc1ccccc1N)/C(C#N)=C(\N)Sc1ccccc1N [U0126, reference compound]",blocked,pre-angiogenic transformation,80.38±4.02×10^3,–,–,–,–,–,–,–,–,–,–,–,–
B1,–,–,–,5,63,47,positive immune reaction,additional bands referred to inducible species of HSP70,positivity,increased,increased,angiogenic modifications,did not bind IgG any longer,stable binding,316

# From patent publication US20100316642A1, “COMPLEXES OF GRP94 WITH HUMAN IMMUNOGLOBULIN G” (priority 2007, published 2010)
